The source of these data is US20130089497A1 (Genentech, published 2013).

The target of test [1] is T1, human FcRH5 (FcRH5c/IRTA2c, PRO52387), soluble recombinant protein (human, UniProt Q96RD9 16-851).
T1 construct: also called Hu antigen; FcRH5 protein
T1 chain: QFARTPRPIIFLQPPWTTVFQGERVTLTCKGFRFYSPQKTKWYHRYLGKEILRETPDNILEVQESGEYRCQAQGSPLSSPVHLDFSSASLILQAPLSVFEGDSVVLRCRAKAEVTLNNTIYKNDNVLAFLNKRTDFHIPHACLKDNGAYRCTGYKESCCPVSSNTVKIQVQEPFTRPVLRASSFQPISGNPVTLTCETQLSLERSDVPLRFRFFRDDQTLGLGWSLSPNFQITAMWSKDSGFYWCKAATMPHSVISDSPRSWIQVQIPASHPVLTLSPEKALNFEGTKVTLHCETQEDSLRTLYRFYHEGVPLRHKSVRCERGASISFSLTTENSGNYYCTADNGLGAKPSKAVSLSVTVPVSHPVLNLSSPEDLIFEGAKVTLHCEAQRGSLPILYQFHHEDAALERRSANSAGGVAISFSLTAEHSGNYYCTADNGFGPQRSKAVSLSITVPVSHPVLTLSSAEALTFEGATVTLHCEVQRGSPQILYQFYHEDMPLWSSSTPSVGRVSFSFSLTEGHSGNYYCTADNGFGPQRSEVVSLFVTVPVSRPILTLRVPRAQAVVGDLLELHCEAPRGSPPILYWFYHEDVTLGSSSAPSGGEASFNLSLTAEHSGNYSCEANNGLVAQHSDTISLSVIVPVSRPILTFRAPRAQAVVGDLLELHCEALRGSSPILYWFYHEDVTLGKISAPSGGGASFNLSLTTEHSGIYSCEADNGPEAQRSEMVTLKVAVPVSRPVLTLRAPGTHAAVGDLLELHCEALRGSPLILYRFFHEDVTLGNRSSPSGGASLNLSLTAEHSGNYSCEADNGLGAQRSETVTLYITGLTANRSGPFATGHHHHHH
The test is described as follows: SPR (Biacore 2000): IgG captured on anti-murine IgG chip, FcRH injected, 25 C, 1:1 Langmuir model. (In SPR one partner is held on a chip, and binding of the other changes the refractive index at the surface.)

For test [2], the target named is T2, gD tagged human FcRH3 on SVT2 cells (human, UniProt Q96P31 18-734).
T2 construct: whole, on cells; also called huFcRH3; not shown: gD tag; the construct for this FcRH is not described
T2 sequence (looked up): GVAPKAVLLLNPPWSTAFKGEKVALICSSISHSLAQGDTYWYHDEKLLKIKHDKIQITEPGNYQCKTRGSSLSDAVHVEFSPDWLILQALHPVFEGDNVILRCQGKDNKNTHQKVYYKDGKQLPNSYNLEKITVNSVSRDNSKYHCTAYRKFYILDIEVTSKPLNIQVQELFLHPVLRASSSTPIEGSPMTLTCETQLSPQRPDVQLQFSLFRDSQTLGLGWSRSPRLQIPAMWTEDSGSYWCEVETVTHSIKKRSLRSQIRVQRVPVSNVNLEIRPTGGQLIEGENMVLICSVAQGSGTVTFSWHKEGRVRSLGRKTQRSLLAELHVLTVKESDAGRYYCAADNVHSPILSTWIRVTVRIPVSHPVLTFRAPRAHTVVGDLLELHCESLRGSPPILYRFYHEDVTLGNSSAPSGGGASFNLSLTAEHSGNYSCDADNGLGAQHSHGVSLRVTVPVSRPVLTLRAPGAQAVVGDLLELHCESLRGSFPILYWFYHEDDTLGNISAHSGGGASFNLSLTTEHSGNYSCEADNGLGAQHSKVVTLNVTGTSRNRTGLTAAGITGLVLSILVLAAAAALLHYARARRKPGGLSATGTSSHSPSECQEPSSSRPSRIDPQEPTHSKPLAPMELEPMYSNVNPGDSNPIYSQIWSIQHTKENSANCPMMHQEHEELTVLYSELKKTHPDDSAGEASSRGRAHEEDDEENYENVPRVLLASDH
Description: FACS, SVT2.MSCV.gD.FcRH3 cells, PE secondary antibody.

Test [3] has as its target T3, gD tagged human FcRH4 on SVT2 cells (human, UniProt Q96PJ5 20-515).
T3 construct: whole, on cells; also called huFcRH4; IRTA1; not shown: gD tag; the construct for this FcRH is not described
T3 sequence (looked up): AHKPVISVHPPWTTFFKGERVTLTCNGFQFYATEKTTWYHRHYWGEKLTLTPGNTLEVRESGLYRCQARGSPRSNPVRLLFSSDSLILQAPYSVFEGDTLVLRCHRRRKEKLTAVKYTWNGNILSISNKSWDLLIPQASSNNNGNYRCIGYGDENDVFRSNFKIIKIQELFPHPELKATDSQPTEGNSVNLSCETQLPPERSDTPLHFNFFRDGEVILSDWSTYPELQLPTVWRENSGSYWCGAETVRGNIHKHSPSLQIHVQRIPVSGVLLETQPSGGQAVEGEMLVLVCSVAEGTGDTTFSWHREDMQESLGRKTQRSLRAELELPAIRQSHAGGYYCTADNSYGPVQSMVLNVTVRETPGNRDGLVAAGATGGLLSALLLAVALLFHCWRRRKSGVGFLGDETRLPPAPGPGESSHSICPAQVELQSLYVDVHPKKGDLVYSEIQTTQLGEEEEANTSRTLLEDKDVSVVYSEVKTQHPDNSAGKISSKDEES
Description: FACS, SVT2.MSCV.gD.FcRH4 cells, PE secondary antibody. (A flow cytometer gives signals particle by particle.)

For test [4], the target named is T4, gD tagged human FcRH1 on SVT2 cells (human, UniProt Q96LA6 17-429).
T4 construct: whole, on cells; also called huFcRH1; not shown: gD tag
T4 sequence (looked up): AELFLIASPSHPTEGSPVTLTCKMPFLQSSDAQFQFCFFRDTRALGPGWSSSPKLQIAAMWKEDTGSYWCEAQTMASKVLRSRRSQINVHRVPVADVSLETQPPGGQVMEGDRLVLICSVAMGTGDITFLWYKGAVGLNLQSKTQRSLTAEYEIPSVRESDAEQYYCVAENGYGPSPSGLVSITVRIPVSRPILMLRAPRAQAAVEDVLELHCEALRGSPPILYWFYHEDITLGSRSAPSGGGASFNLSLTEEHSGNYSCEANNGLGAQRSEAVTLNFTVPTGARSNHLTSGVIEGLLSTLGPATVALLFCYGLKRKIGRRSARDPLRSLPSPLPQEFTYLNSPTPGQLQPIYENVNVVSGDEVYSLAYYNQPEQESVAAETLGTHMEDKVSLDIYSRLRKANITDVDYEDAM
Description: FACS, SVT2.MSCV.gD.FcRH1 cells, PE secondary antibody.

B1: murine monoclonal antibody anti-FcRH5-13G9 (antibody, V domains shown)
VH: EVQLVQSGPELKKPGETVKISCKASGYTFTNYGMNWVKQAPGKGLKWMGWVNTYTGEPTYTDDFKGRFAFSVETSASTVFLQINNLKNEDTATYFCARRSIPYYYAMDYWGQGTSLT
VL: DIVMTQSQKIMSTSVGDRVNVTCKASQNVGSNVAWYHQKPGQSPKALIYSASYRYSGVPDRFTGSGSGTDFTLTISNVQSEDLAEYFCQQYKTWTFGGGTKLEIKR
notes: Whole murine IgG from hybridoma; also called 13G9.1.1; mu13G9
Consider B1, for which the dissociation constant (Kd) in test [1] worked out at 19 nM. For the same molecule, the binding result in test [2], in test [3] and in test [4] was “no binding (tested: 1.0 ug per about 10^6 cells (p-1120))” throughout.

The term Kd denotes the equilibrium constant for the complex coming apart.
